Among the data in publication PMC10611921, “Assessing the dynamics and macromolecular interactions of the intrinsically disordered protein YY1” (Bioscience Reports, 2023) are binding result and Kd values, retold here.

For data set [1], the target named is T1, FOXP2 FHD (UniProt O15409 504-594).
T1 sequence: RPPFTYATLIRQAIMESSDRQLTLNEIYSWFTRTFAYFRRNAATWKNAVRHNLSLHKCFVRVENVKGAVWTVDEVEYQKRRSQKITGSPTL
In words: EMSA; single complex, no YY1; Anisotropy: 10 mM HEPES pH 7.5, 100 mM NaCl, 20 C; EMSA: 0.5 uM DNA, 20% (v/v) of binding buffer (10 mM HEPES pH 7.5, 1 mM MgCl2, 100 mM KCl, 10% glycerol, 0.1). To be noted: protein: recombinant; tags: His6 removed with thrombin. On the technique in general: In EMSA bound probe runs differently from free probe, usually more slowly.

The target of data set [2] is T2, Yin Yang 1 (YY1), full-length, N-terminal hexahistidine tag (UniProt P25490 1-414, NTA ATTO 550 on the N-terminal hexahistidine tag (the labelled copy in the anisotropy assays)).
T2 construct: YY1 (Yin Yang 1), full-length construct; A heterogeneous mixture of oligomers in solution; In the anisotropy assays 0.2 μM YY1 carried NTA ATTO 550 on the His tag; the titrated YY1 was unlabelled; also called Ying Yang 1; source: T7 cells (Genscript), pET-11A plasmid, purified (IMAC on cobalt, size exclusion chromatography); not shown: His6, N-terminal, kept
Kind of data set: fluorescence polarisation; fluorescence anisotropy; unlabelled FOXP2 FHD titrated into 0.2 μM YY1 labelled with NTA ATTO 550; 100 mM NaCl, 10 mM HEPES pH 7.5, 20°C; single site model, apparent KD. To be noted: both partners purified.

Data set [3] deals with T2, Yin Yang 1 (YY1), full-length, …. In words: fluorescence polarisation; fluorescence anisotropy; unlabelled FOXP2 FHD titrated into 0.2 μM YY1 labelled with NTA ATTO 550; 300 mM NaCl, 10 mM HEPES pH 7.5, 20°C; single site model, apparent KD. Particulars: both partners purified. A general note: Polarisation of emitted light reports the rotation of a fluorescent probe.
Data set [4] has the same target. In words: fluorescence polarisation; fluorescence anisotropy; unlabelled FOXP2 FHD titrated into 0.2 μM YY1 labelled with NTA ATTO 550; 500 mM NaCl, 10 mM HEPES pH 7.5, 20°C; single site model, apparent KD. Particulars: both partners purified.
Data set [5] shares this target. In words: fluorescence polarisation; fluorescence anisotropy; unlabelled FOXP2 FHD titrated into 0.2 μM YY1 labelled with NTA ATTO 550 in the presence of 10 μM background AAV P5 promoter DNA (YY1 specific); 100 mM NaCl, 10 mM HEPES pH 7.5, 20°C. To be noted: both partners purified.
For data set [6], the target named is T1, FOXP2 FHD. In words: EMSA; control gel; no specific binding; Anisotropy: 10 mM HEPES pH 7.5, 100 mM NaCl, 20 C; EMSA: 0.5 uM DNA, 20% (v/v) of binding buffer (10 mM HEPES pH 7.5, 1 mM MgCl2, 100 mM KCl, 10% glycerol, 0.1). Particulars: protein: recombinant; tags: His6 removed with thrombin.
Data set [7] addresses YY1 labelled with NTA ATTO 550 (UniProt P25490 1-414). In words: fluorescence anisotropy; apparent KD; 0.2 uM labelled YY1, DNA titrated; 100 mM NaCl; Anisotropy: 10 mM HEPES pH 7.5, 100 mM NaCl, 20 C; EMSA: 0.5 uM DNA, 20% (v/v) of binding buffer (10 mM HEPES pH 7.5, 1 mM MgCl2, 100 mM KCl, 10% glycerol, 0.1). Particulars: protein: recombinant; tags: N-terminal His6 (NTA ATTO 550 label).

T2 sequence (P25490 whole entry): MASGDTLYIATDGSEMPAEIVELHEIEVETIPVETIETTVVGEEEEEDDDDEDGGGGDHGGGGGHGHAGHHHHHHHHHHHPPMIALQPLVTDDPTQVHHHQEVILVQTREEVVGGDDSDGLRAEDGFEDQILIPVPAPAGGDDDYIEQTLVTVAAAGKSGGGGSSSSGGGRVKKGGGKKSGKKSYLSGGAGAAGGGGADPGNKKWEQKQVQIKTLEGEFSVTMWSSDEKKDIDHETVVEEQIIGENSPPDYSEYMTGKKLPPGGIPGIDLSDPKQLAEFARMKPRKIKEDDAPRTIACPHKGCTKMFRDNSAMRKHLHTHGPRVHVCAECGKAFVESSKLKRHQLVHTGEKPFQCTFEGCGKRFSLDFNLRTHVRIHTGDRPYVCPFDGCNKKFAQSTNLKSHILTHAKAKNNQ
Chain of YY1 labelled with NTA ATTO 550 (P25490 whole entry): as above

B1: CNTNAP2 DNA (dsDNA)
DNA 1: TTTGATTGTTTACTTTGTTC
DNA 2: GAACAAAGTAAACAATCAAA
With B1, the binding result with FOXP2 FHD [1] was “binds”.

B2: FOXP2 forkhead domain (FHD) (domain or fragment, UniProt O15409 504-594, looked up)
chain: T1 sequence
notes: also called FOXP2 FHD; forkhead box P2 forkhead domain; source: T7 cells (Genscript), pET-11A plasmid, purified (IMAC on nickel; His-tag removed with thrombin, benzamidine and HiTrap columns); not shown: His6, N-terminal, cleaved
Regarding B2, the Kd in data set [2] was about 73 µM; in data set [3] it was about 28 µM; in data set [4] it was about 67 µM; in data set [5], 58 ± 6 µM.

B3: AAV P5 DNA (dsDNA)
DNA 1: AGGGTCTCCATTTTGAAGCG
DNA 2: CGCTTCAAAATGGAGACCCT
On to B3, for which the binding result with FOXP2 FHD [6] was “no binding”. Also, the Kd in data set [7] stood at 3.7 ± 0.4 µM.
